The values below come from patent publication US6033847.

Some results are limits rather than exact numbers.

The target of assay [1] is CDK4-cyclin D2 holoenzyme complex (Mus musculus (Mouse)) (UniProt P30285).
Assay [2] deals with CDK6-cyclin D2 holoenzyme complex (Mus musculus (Mouse)) (UniProt P30280).

For “GST-ANK6 (GST fused to the MAD3 subdomain containing only the five ankyrin repeats, amino acids 73-242) (from UniProt P08515)”, the pRb kinase activity (fold less efficient) in assay [1] and in assay [2] was more than 30 in each case.
Take “GST-MAD3 (GST fused to mouse IkB (MAD3)) (from UniProt Q9Z1E3)”: the pRb kinase activity (fold less efficient) in assay [1] and in assay [2] was more than 30 in each case.
